This note sets out measurements from patent US20180326005A1 (HEAT BIOLOGICS, published 2018).

By Kd is commonly meant the free concentration of one partner at which half of the binding sites on the other are occupied at equilibrium, for simple one-to-one binding. For orientation: koff means the first-order rate constant of dissociation. In general, kon refers to a measure of how fast the partners come together.

Like-named read-outs stand apart in the source and are kept apart here.

The target of test [1] is polyhistidine-tagged recombinant human CD47 (human) (UniProt Q08722). As to the kind of experiment: SPR summary table, row group CD47.
For test [2], the target named is T1, human FcγR1A (human, UniProt P12314 16-288).
T1 construct: also called recombinant human FcγR1A
The experiment in a line: SPR summary table, row group FcγR1A.

Test [3] concerns the target T2, neonatal receptor FcRn (human, UniProt P55899 24-297; P61769 21-119).
T2 construct: also called recombinant human FcRn
As to the kind of experiment: SPR summary table, row group FcRn.

Test [4] has as its target T3, polyhistidine-tagged recombinant human OX40 (human, UniProt P43489 29-216).
T3 construct: also called recombinant OX40-his; hOX40-his; not shown: polyhistidine tag
T3 sequence (looked up): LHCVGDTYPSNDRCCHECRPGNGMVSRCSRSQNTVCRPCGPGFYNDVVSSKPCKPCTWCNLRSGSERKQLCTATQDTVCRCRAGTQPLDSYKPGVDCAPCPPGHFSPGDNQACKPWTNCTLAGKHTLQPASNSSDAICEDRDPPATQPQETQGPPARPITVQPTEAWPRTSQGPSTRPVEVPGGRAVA
As to the kind of experiment: SPR summary table, row group OX40. From the text:
(§1) Specifically, polyhistidine-tagged versions of recombinant human PD-L1, PD-L2 and human OX40 was bound to ProteOn HTG tris-NTA chips (BIORAD).

The target of test [5] is T3, polyhistidine-tagged recombinant human …. The experiment in a line: SPR summary table, row group OX40.
Text: as §1
This is another data set of the same source.

For test [6] the target is unchanged. The experiment in a line: SPR summary table, row group OX40. From the text:
(§2) Specifically, polyhistidine-tagged versions of recombinant human CD47 and human OX40 was bound to ProteOn HTG tris-NTA chips (BIORAD).
This is another data set of the same source.

In the next test the target is T4, mouse PD-1-Fc (mouse, UniProt Q02242 25-169; P01868 98-324 = IgG part, limits assumed).
T4 construct: extracellular domain;domain: Fc; Control construct, tested as CHO-K1 culture medium; also called mPD-1-Fc; recombinant mouse PD1-Fc
The experiment in a line: ELISA: plate-bound mOX40-hFc, two-fold dilutions of CHO-K1 culture medium, detection with rabbit anti-mPD-1 and anti-rabbit IgG-HRP. From the text: A rabbit polyclonal antibody to mPD-1 was used to detect the mPD-1 domain in the chimeric protein and subsequently detected using a horseradish peroxidase (HRP)-conjugated polyclonal antibody to rabbit IgG (H+L).
A rabbit polyclonal antibody to mPD-1 was used to detect the mPD-1 domain in the chimeric protein and subsequently detected using a horseradish peroxidase (HRP)-conjugated polyclonal antibody to rabbit IgG (H+L). […] A horseradish peroxidase (HRP)-conjugated polyclonal antibody to mouse IgG (H+L) was used for the detection of the bound proteins.

The target in the next test is T5, FcγR2B (human, UniProt P31994 46-217, limits assumed).
T5 sequence (looked up): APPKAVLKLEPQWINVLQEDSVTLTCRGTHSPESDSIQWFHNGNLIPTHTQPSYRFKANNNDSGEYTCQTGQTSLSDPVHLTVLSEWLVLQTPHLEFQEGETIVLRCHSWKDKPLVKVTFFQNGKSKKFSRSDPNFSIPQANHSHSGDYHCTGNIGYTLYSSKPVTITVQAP
As to the kind of experiment: SPR, chip-bound Fc receptor.

Test [7] concerns the target T2, neonatal receptor FcRn. As to the kind of experiment: SPR, chip-bound Fc receptor.
In test [8] the target is T1, human FcγR1A. The experiment in a line: SPR, chip-bound human FcγR1A, analyte in flow. A general note: In SPR one partner is held on a chip, and binding of the other changes the refractive index at the surface.
Test [9] deals with T6, polyhistidine-tagged recombinant human PD-L2 (human, UniProt Q9BQ51 20-219).
T6 construct: not shown: polyhistidine tag
T6 sequence (looked up): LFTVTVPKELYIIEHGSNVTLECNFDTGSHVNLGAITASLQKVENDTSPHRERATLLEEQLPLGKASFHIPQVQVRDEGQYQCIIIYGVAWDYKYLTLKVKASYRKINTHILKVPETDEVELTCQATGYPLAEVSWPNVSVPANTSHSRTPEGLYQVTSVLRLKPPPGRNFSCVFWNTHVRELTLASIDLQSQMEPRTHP
The experiment in a line: SPR summary table, row group PD-L2.
Text: as §1

The target of test [10] is T7, polyhistidine-tagged recombinant human PD-L1 (human, UniProt Q9NZQ7 19-239).
T7 construct: also called hPD-L1; not shown: polyhistidine tag
As to the kind of experiment: SPR summary table, row group PD-L1.
Text: as §1

Test [11] has as its target human PD-L1 on cells (CHO-K1/hPD-L1, HCC827, PC3, HeLa-PD-L1) (human, UniProt Q9NZQ7 19-290). The experiment in a line: cell-based or functional assay.
Test [12] concerns the target T2, neonatal receptor FcRn. The experiment in a line: SPR summary table, row group FcRn; the text gives 73 nM for this pair.
For test [13], the target named is T7, polyhistidine-tagged recombinant human …. The experiment in a line: SPR, his-tagged ligand on ProteOn HTG tris-NTA chip.
Text: as §1, §2

Test [14] addresses T3, polyhistidine-tagged recombinant human …. Described as above.
Text: as §1, §2

The target in test [15] is T6, polyhistidine-tagged recombinant human …. Described as above.
Text: as §1, §2

In test [16] the target is T8, human OX40 on cells (Jurkat/hOX40, activated human T cells) (human, UniProt P43489 29-277).
T8 construct: whole, on cells; also called Jurkat/OX40; cell surface expressed OX40
T8 sequence (looked up): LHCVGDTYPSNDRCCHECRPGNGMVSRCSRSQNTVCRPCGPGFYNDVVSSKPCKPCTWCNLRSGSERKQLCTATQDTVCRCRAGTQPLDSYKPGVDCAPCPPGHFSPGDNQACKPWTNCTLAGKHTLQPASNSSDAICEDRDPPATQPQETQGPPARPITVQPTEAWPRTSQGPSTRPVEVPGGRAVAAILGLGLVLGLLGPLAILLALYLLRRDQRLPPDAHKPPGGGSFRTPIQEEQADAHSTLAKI
The experiment in a line: flow cytometry, Jurkat-hOX40 against parental Jurkat cells, Fc-Fusions: PE-A.

T1 sequence (P12314 16-288 limits assumed): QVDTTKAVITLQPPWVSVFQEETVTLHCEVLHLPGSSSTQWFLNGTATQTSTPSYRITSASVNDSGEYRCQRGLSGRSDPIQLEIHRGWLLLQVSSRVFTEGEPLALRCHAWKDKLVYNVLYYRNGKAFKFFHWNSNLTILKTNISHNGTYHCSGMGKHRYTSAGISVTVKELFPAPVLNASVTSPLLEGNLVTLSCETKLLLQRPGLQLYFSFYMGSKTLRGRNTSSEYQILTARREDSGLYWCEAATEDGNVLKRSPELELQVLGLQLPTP
polyhistidine-tagged recombinant human CD47 (human), sequence (Q08722 19-139 limits assumed): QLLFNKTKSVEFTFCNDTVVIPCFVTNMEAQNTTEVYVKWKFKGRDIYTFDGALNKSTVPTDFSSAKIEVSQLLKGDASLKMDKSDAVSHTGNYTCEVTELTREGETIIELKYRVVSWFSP
T7 sequence (Q9NZQ7 19-239 limits assumed): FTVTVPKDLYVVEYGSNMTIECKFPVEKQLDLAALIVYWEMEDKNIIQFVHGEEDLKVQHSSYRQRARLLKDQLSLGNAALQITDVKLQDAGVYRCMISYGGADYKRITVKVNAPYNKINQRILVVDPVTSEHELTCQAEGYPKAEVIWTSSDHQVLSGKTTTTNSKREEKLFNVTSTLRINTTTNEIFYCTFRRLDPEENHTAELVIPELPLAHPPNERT
human PD-L1 on cells (CHO-K1/hPD-L1, HCC827, PC3, HeLa-PD-L1), sequence (Q9NZQ7 19-290): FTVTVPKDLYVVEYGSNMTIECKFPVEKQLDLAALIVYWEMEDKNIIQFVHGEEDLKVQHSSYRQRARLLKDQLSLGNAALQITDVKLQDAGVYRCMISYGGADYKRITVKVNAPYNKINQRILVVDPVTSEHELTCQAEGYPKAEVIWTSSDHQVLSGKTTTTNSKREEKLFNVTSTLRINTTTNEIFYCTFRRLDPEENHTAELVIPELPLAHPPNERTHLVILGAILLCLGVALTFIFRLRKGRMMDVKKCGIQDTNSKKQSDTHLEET
T4 sequence (Q02242 other isoform, or with tags, fused parts or gaps limits assumed): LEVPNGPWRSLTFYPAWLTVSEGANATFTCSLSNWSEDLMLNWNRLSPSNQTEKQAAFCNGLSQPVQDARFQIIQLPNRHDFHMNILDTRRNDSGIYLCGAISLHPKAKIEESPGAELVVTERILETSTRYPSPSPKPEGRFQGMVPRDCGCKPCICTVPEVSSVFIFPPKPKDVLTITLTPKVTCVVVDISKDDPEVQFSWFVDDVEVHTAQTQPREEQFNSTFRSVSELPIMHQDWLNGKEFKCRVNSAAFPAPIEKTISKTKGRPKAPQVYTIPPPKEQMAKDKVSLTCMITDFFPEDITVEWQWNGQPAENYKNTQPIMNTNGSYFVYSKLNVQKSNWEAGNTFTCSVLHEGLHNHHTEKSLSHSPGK

For the molecule CD172a-Fc (Fc fusion), in test [1], the Kd was 3.16 nM, the koff stood at 0.00239 s⁻¹ and the kon is 756000 M⁻¹ s⁻¹.
Regarding human immunoglobulin IgG1 (antibody), in the test with human FcγR1A [2], the dissociation constant (Kd) is 17.7 nM, the koff stood at 0.00044 s⁻¹ and the kon was found to be 24900 M⁻¹ s⁻¹. In the test with neonatal receptor FcRn [3], this molecule displayed a Kd of 4.87 nM, a koff of 0.0046 s⁻¹ and a kon of 945000 M⁻¹ s⁻¹.

B1: recombinant human OX40L-Fc (Fc fusion, UniProt P23510 51-183, looked up)
chain: QVSHRYPRIQSIKVQFTEYKKEKGFILTSQKEDEIMKVQNNSVIINCDGFYLISLKGYFSQEVNISLHYQKDEEPLFQLKKVRSVNSLMVASLTYKDKVYLNVTTDNTSLDDFHVNGGELILIHQNPGEFCVL
notes: Positive control in SPR; not shown: Fc
As for B1, the Kd in test [4], in test [5] and in test [6] was 9.28 nM each time. For the same molecule, the koff in [4], in test [5] and in test [6] was 0.00069 s⁻¹ each time.

B2: recombinant mOX40 fused to human Fc (Fc fusion, mouse, UniProt P47741 20-211, looked up)
chain: VTARRLNCVKHTYPSGHKCCRECQPGHGMVSRCDHTRDTLCHPCETGFYNEAVNYDTCKQCTQCNHRSGSELKQNCTPTQDTVCRCRPGTQPRQDSGYKLGVDCVPCPPGHFSPGNNQACKPWTNCTLSGKQTRHPASDSLDAVCEDRSLLATLLWETQRPTFRPTTVQSTTVWPRTSELPSPPTLVTPEGP
notes: also called mOX40-hFc; not shown: human Fc
Regarding B2, the binding result in the test with mouse PD-1-Fc is given as “no binding (tested: 1:1 (undiluted culture medium))”.

B3: SL-279252 (human PD-1-Fc-OX40L) (Fc fusion)
chain: LDSPDRPWNPPTFSPALLVVTEGDNATFTCSFSNTSESFVLNWYRMSPSNQTDKLAAFPEDRSQPGQDCRFRVTQLPNGRDFHMSVVRARRNDSGTYLCGAISLAPKAQIKESLRAELRVTERRAEVPTAHPSPSPRPAGQFQSKYGPPCPSCPAPEFLGGPSVFLFPPKPKDTLMISRTPEVTCVVVDVSQEDPEVQFNWYVDGVEVHNAKTKPREEQFNSTYRVVSVLTVLHQDWLSGKEYKCKVSSKGLPSSIEKTISNATGQPREPQVYTLPPSQEEMTKNQVSLTCLVKGFYPSDIAVEWESNGQPENNYKTTPPVLDSDGSFFLYSRLTVDKSSWQEGNVFSCSVMHEALHNHYTQKSLSLSLGKIEGRMDQVSHRYPRIQSIKVQFTEYKKEKGFILTSQKEDEIMKVQNNSVIINCDGFYLISLKGYFSQEVNISLHYQKDEEPLFQLKKVRSVNSLMVASLTYKDKVYLNVTTDNTSLDDFHVNGGELILIHQNPGEFCVL
notes: Glycosylated; about 50% of the non-reduced protein ran as a dimer; also called hPD-1-Fc-OX40L
As to B3, the binding result in the test with FcγR2B is reported as “no binding”; with human FcγR1A [8], “no binding (tested: 500 nM)”. In addition, the Kd with neonatal receptor FcRn [7] came out at 73 nM; in the test with neonatal receptor FcRn [12] it was 9.17 nM; in test [13], 2.08 nM; in test [14] it was 0.246 nM; in [15] it was 1.24 nM. In addition, the koff in [9] worked out at 6.7e-05 s⁻¹; in test [5], 1.9e-05 s⁻¹; in test [10], 0.000176 s⁻¹; with neonatal receptor FcRn [3], 0.00234 s⁻¹. In addition, the kon in test [9] came out at 54000 M⁻¹ s⁻¹; in [5], 77300 M⁻¹ s⁻¹; in test [10], 84500 M⁻¹ s⁻¹; with neonatal receptor FcRn [3] it was 255000 M⁻¹ s⁻¹. Besides, the “increase in IL-2 from baseline (no SL-279252) to 5 ug/mL of SL-279252, T cell co-culture with HCC827 (PD-L1high)” value in test [11] was found to be 1.92 fold. In addition, the “increase in IL-2 from baseline (no SL-279252) to 5 ug/mL of SL-279252, T cell co-culture with PC3 (PD-L1low)” value in test [11] is 1.27 fold. Besides, the “off-rate, fold slower than recombinant PD-1-Fc” value in test [13] is approximately 20 fold.

B4: human PD1-Fc-TL1A (Fc fusion)
chain: LDSPDRPWNPPTFSPALLVVTEGDNATFTCSFSNTSESFVLNWYRMSPSNQTDKLAAFPEDRSQPGQDCRFRVTQLPNGRDFHMSVVRARRNDSGTYLCGAISLAPKAQIKESLRAELRVTERRAEVPTAHPSPSPRPAGQFQSKYGPPCPSCPAPEFLGGPSVFLFPPKPKDTLMISRTPEVTCVVVDVSQEDPEVQFNWYVDGVEVHNAKTKPREEQFNSTYRVVSVLTVLHQDWLSGKEYKCKVSSKGLPSSIEKTISNATGQPREPQVYTLPPSQEEMTKNQVSLTCLVKGFYPSDIAVEWESNGQPENNYKTTPPVLDSDGSFFLYSRLTVDKSSWQEGNVFSCSVMHEALHNHYTQKSLSLSLGKIEGRMDRAQGEACVQFQALKGQEFAPSHQQVYAPLRADGDKPRAHLTVVRQTPTQHFKNQFPALHWEHELGLAFTKNRMNYTNKFLLIPESGDYFIYSQVTFRGMTSECSEIRQAGRPNKPDSITVVITKVTDSYPEPTQLLMGTKSVCEVGSNWFQPIYLGAMFSLQEGDKLMVNVSDISLVDYTKEDKTFFGAFLL
notes: The entry includes the native leader; no cleavage site is stated; also called hPD1-Fc-TL1A
B4: the binding result in test [16] is listed as “no binding”.
